T1: biotinylated HEG1 cytoplasmic tail (a.a. 1274-1381) (UniProt Q9ULI3 1274-1381, biotin on the in vivo biotinylation peptide tag)
T1 sequence (looked up): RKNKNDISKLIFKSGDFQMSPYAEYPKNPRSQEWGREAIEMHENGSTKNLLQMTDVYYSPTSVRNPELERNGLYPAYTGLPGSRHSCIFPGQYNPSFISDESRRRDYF

B1: His6-EGFP-KRIT1(WT) FERM domain (417-736) (domain or fragment, human, UniProt O00522 417-736, looked up)
chain: KPYEKVRIYRMDGSYRSVELKHGNNTTVQQIMEGMRLSQETQQYFTIWICSENLSLQLKPYHKPLQHVRDWPEILAELTNLDPQRETPQLFLRRDVRLPLEVEKQIEDPLAILILFDEARYNLLKGFYTAPDAKLITLASLLLQIVYGNYESKKHKQGFLNEENLKSIVPVTKLKSKAPHWTNRILHEYKNLSTSEGVSKEMHHLQRMFLQNCWEIPTYGAAFFTGQIFTKASPSNHKVIPVYVGVNIKGLHLLNMETKALLISLKYGCFMWQLGDTDTCFQIHSMENKMSFIVHTKQAGLVVKLLMKLNGQLMPTERNS

Assays:
[1] = biological target: T1, biotinylated HEG1 cytoplasmic tail …; assay: flow cytometry on beads
[2] = biological target: B1; assay: flow cytometry on beads

| Binder | EC50 [1] [nM] | IC50 [2] [nM] |
| --- | --- | --- |
| B1 | 32.4 |  |
| SRRRDYF (peptide, UniProt Q9ULI3 1375-1381, looked up) [non-biotinylated HEG1 7-mer peptide (residues 1375-1381)] |  | 410 |

From article doi:10.1101/744821 (bioRxiv, 2019)
